Measured values from patent EP4296674A1 (Université Toulouse III - Paul Sabatier, dated 2023).

B2: HadA of Mycobacterium tuberculosis fused to an enhanced Green Fluorescent Protein (eGFP) tag at its N-terminus (other)
chain: MALSADIVGMHYRYPDHYEVEREKIREYAVAVQNDDAWYFEEDGAAELGYKGLLAPLTFICVFGYKAQAAFFKHANIATAEAQIVQVDQVLKFEKPIVAGDKLYCDVYVDSVREAHGTQIIVTKNIVTNEEGDLVQETYTTLAGRAGEDGEGFSDGAA

Key:
[1] = molecular target: N-terminal polyHis-tagged HadD of Mycobacterium tuberculosis (Mycobacterium tuberculosis); assay: from the HadBD crystal structure
[2] = molecular target: HadB protein of Mycobacterium tuberculosis (untagged) (Mycobacterium tuberculosis)
[3] = molecular target: N-terminal polyHis-tagged HadD of Mycobacterium tuberculosis (Mycobacterium tuberculosis); assay: PDBePISA analysis of the HadBD crystal structure
HadC-Ctrp fusion protein = molecular target: T1, HadC-Ctrp fusion protein (Mycobacterium tuberculosis (HadC); …); assay: split-Trp assay in M. smegmatis ΔhisA, positive control pair
T1 chain: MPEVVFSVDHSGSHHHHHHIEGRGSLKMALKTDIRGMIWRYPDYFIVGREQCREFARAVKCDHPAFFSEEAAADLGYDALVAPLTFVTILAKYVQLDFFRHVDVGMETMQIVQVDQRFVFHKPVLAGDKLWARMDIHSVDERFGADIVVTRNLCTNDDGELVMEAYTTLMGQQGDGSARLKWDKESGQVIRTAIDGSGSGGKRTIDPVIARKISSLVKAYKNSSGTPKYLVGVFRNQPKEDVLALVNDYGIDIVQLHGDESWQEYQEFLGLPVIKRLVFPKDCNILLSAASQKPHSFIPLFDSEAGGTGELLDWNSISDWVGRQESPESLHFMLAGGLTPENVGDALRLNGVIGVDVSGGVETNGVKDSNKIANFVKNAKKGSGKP

[4] = molecular target: T2, HadD-Ctrp fusion protein (C-terminal fragment of S. cerevisiae Trp1p fused to the C-terminal end of HadD of … (Mycobacterium tuberculosis (HadD); …); assay: split-Trp assay in M. smegmatis ΔhisA
T2 chain: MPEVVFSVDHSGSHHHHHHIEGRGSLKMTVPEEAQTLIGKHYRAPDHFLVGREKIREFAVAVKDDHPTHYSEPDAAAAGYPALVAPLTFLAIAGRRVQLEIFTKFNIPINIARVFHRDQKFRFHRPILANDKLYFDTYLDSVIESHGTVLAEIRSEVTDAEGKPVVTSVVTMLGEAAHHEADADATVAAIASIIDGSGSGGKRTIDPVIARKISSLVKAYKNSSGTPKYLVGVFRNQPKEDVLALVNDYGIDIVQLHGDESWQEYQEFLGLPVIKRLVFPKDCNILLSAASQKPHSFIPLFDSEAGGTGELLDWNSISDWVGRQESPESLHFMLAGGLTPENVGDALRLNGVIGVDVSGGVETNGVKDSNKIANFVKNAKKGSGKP

[5] = molecular target: T3, HadD of M. bovis BCG (BCG_0547c) (Mycobacterium bovis BCG, UniProt P64726 1-166); assay: pull-down from M. bovis BCG on anti-GFP magnetic beads, nanoLC-MS/MS proteomics
T3 sequence: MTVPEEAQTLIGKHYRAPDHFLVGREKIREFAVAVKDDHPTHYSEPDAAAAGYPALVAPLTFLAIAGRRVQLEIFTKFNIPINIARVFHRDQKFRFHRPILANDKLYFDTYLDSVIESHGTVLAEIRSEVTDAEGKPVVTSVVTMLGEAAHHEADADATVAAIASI

HadC (Rv0637) = molecular target: T4, HadC (Rv0637) (Mycobacterium tuberculosis, UniProt P9WFJ9 1-166); assay: as above
T4 sequence: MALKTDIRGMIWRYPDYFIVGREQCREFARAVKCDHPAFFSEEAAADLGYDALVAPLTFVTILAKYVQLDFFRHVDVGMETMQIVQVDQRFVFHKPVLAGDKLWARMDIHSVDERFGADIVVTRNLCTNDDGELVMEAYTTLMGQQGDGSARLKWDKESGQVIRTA

[6] = molecular target: B2; assay: as above
[7] = molecular target: T2, HadD-Ctrp fusion protein (C-terminal …); assay: split-Trp assay in M. smegmatis ΔhisA, growth on medium without Trp
[8] = molecular target: T5, Cfp10-Ctrp fusion protein (Mycobacterium tuberculosis (Cfp10); …); assay: split-Trp assay in M. smegmatis ΔhisA, positive control pair
T5 chain: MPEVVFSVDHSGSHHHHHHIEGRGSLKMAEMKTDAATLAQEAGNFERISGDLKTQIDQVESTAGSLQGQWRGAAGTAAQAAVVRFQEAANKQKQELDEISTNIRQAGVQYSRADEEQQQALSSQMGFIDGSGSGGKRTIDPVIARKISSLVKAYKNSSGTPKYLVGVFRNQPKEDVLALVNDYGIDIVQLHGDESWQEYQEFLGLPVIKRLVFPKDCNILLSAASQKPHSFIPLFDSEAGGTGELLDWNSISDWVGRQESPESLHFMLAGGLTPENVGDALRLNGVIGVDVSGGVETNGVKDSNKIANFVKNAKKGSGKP

Molecule: HadB protein of Mycobacterium tuberculosis (untagged) (enzyme)
- total buried surface at each heterodimer interface [1]: 3840 A^2
- buried surface area [2]: 525 A^2
- ΔG (PDBePISA) [2]: -24.3 kJ/mol
- surface of heterodimerization (PDBePISA) [3]: 1340 Å^2
- ΔG of heterodimerization (PDBePISA) [3]: -46 kJ/mol

B1: Ntrp-HadB fusion protein (N-terminal fragment of S. cerevisiae Trp1p fused to the N-terminal end of HadB of Mtb) (other)
chain: MPEVVFSVDHSGSGTMYPYDVPDYASSVINFTGSSGPLVKVCGLQSTEAAECALDSDADLLGIICVPNRGGSGSGLKMALREFSSVKVGDQLPEKTYPLTRQDLVNYAGVSGDLNPIHWDDEIAKVVGLDTAIAHGMLTMGIGGGYVTSWVGDPGAVTEYNVRFTAVVPVPNDGKGAELVFNGRVKSVDPESKSVTIALTATTGGKKIFGRAIASAKLA
- binding result (HadC-Ctrp fusion protein): binds
- binding result [4]: binds

Molecule: B2
- binding result [5]: binds
- binding result (HadC (Rv0637)): binds

B3: HadB protein of Mycobacterium tuberculosis (untagged) (enzyme)
chain: MALREFSSVKVGDQLPEKTYPLTRQDLVNYAGVSGDLNPIHWDDEIAKVVGLDTAIAHGMLTMGIGGGYVTSWVGDPGAVTEYNVRFTAVVPVPNDGKGAELVFNGRVKSVDPESKSVTIALTATTGGKKIFGRAIASAKLA
- binding result [6]: binds

B4: Ntrp-HadDMtb fusion protein (other)
chain: SSVINFTGSSGPLVKVCGLQSTEAAECALDSDADLLGIICVPNRMTVPEEAQTLIGKHYRAPDHFLVGREKIREFAVAVKDDHPTHYSEPDAAAAGYPALVAPLTFLAIAGRRVQLEIFTKFNIPINIARVFHRDQKFRFHRPILANDKLYFDTYLDSVIESHGTVLAEIRSEVTDAEGKPVVTSVVTMLGEAAHHEADADATVAAIASI
- binding result [7]: no binding

B5: Ntrp-Esat6 fusion protein (other)
chain: MPEVVFSVDHSGSGTMYPYDVPDYASSVINFTGSSGPLVKVCGLQSTEAAECALDSDADLLGIICVPNRGGSGSGLKMTEQQWNFAGIEAAASAIQGNVTSIHSLLDEGKQSLTKLAAAWGGSGSEAYQGVQQKWDATATELNNALQNLARTISEAGQAMASTEGNVTGMFA
- binding result [8]: binds
